According to patent US6656907B1, “Method of treating gastric ulcer by administration of epidermal growth factor” (University Technologies International Inc., priority 1995, dated 2003):

Tests used:
RDEC-E. coli = RDEC-E. coli intestinal infection in rabbits, oral EGF; assay type: in vivo, New Zealand White rabbits
Description: Twenty-eight New Zealand White rabbits (6 wk-old) were studied in 3 groups: 1) Controls (Con, n=9), 2) Infected with 1×10^7 RDEC-E. coli (I, n=10), and 3) Infected-treated with 60 μg oral EGF daily for 10 days, starting 3 days prior to infection (I-EGF, n=9). Animals were assessed daily for weight gain, rectal passage of E. coli, and presence of diarrhea. Seven days post-infection, animals were killed and mucosa obtained from the jejunum (JEJ), ileum (ILE), and proximal colon (PROX) for quantitation of E. coli, and from the jejunum for mucosal enzyme assays.

E. coli = E. coli translocation across confluent CaCo2 monolayers on Transwell membranes; assay type: cell-based, human
Description: (§1) Two×10^8 human pathogenic Salmonella typhimurium or E. coli were added to the apical surface of confluent human CaCo2 monolayers grown on Transwell membranes (porosity 3.0 μm). Monolayers received apical EGF (100 μM) or PBS 15 min prior to infection. Each hour post infection (0-7 h), medium under the membrane was replaced and bacterial transepithelial migration rate (CFU/h) was calculated.

Salmonella typhimurium = Salmonella typhimurium translocation across confluent CaCo2 monolayers on Transwell membranes; assay type: cell-based, human; conditions: apical EGF 100 μM 15 min prior to infection
Description: as §1

[1] = Weight gain in healthy rabbits given daily oral EGF; assay type: in vivo, New Zealand white rabbits
Description: EGF was tested for its potential benefits on weight gain. One group of New Zealand white rabbits (6 week old, 500-700 g) received daily oral doses of recombinant human EGF (100 μg/kg body weight) and control animals were given saline only. […] Given the linear aspect of both curves, continued feeding with EGF is likely to produce a steadily increasing. effect on weight gain.

[2] = tested on: intestinal brush border membrane nutrient absorption; test: Nutrient uptake into brush border membrane vesicles after jejunal loop treatment; assay type: in vivo, New Zealand White rabbits
Description: Subsequent experiments examined the effects of EGF and an inhibitor of the EGF receptor (tyrphostin 51) on intestinal brush border membrane nutrient absorption. Tyrphostin 51is a specific inhibitor of tyrosine kinase, which is a critical element of the EGF intracellular signalling cascade. Studies were performed in New Zealand White rabbits (700-1000 g; approximately 8 weeks of age). Two 10 cm blind jejunal loops separated by a 1 cm segment were tied off starting 5 cm distal to the ligament of Treitz. In separate experiments either EGF (60 ng/ml), EGF+tyrphostin (10 μM), or tyrphostin (10 μM) alone in 1.5 ml of saline vehicle was administered to one of the loops. The other loop received vehicle alone and served as a paired control. After one hour, the loops were removed and the mucosa scraped for preparation of brush border membrane vesicles. Nutrient (D-glucose and L-proline) uptake into brush border membrane vesicles was determined by established techniques. Luminal EGF stimulated a significant increase (p<0.001) in brush border membrane glucose (EGF 16.1±1.0 vs CONTROL 11.5±0.9 nmol/min/mg protein; n=5) and proline (EGF 3.8±0.5 vs CONTROL 2.6±0.3 nmol/min/mg protein; n=5) transport compared to controls. […] Subsequently, a further series of experiments examined the effect of tyrphostin alone on brush border glucose transport. […] Thus, EGF treatment increases nutrient absorption and promotes weight gain. Conversely, tyrphostin treatment may promote a decrease in weight gain or weight loss and therefore may be useful in the treatment of obesity. Tyrphostin treatment may also reduce the intestinal uptake of toxic or adverse substances.

[3] = Stability of lyophilized EGF in drinking water; assay type: physicochemical; conditions: lyophilized EGF added to drinking water
[4] = jejunum mucosa, 7 days after inoculation

B1: epidermal growth factor (protein, UniProt P01133 23-1207, looked up)
Pro-epidermal growth factor: PQHWSCPEGTLAGNGNSTCVGPAPFLIFSHGNSIFRIDTEGTNYEQLVVDAGVSVIMDFHYNEKRIYWVDLERQLLQRVFLNGSRQERVCNIEKNVSGMAINWINEEVIWSNQQEGIITVTDMKGNNSHILLSALKYPANVAVDPVERFIFWSSEVAGSLYRADLDGVGVKALLETSEKITAVSLDVLDKRLFWIQYNREGSNSLICSCDYDGGSVHISKHPTQHNLFAMSLFGDRIFYSTWKMKTIWIANKHTGKDMVRINLHSSFVPLGELKVVHPLAQPKAEDDTWEPEQKLCKLRKGNCSSTVCGQDLQSHLCMCAEGYALSRDRKYCEDVNECAFWNHGCTLGCKNTPGSYYCTCPVGFVLLPDGKRCHQLVSCPRNVSECSHDCVLTSEGPLCFCPEGSVLERDGKTCSGCSSPDNGGCSQLCVPLSPVSWECDCFPGYDLQLDEKSCAASGPQPFLLFANSQDIRHMHFDGTDYGTLLSQQMGMVYALDHDPVENKIYFAHTALKWIERANMDGSQRERLIEEGVDVPEGLAVDWIGRRFYWTDRGKSLIGRSDLNGKRSKIITKENISQPRGIAVHPMAKRLFWTDTGINPRIESSSLQGLGRLVIASSDLIWPSGITIDFLTDKLYWCDAKQSVIEMANLDGSKRRRLTQNDVGHPFAVAVFEDYVWFSDWAMPSVMRVNKRTGKDRVRLQGSMLKPSSLVVVHPLAKPGADPCLYQNGGCEHICKKRLGTAWCSCREGFMKASDGKTCLALDGHQLLAGGEVDLKNQVTPLDILSKTRVSEDNITESQHMLVAEIMVSDQDDCAPVGCSMYARCISEGEDATCQCLKGFAGDGKLCSDIDECEMGVPVCPPASSKCINTEGGYVCRCSEGYQGDGIHCLDIDECQLGEHSCGENASCTNTEGGYTCMCAGRLSEPGLICPDSTPPPHLREDDHHYSVRNSDSECPLSHDGYCLHDGVCMYIEALDKYACNCVVGYIGERCQYRDLKWWELRHAGHGQQQKVIVVAVCVVVLVMLLLLSLWGAHYYRTQKLLSKNPKNPYEESSRDVRSRRPADTEDGMSSCPQPWFVVIKEHQDLKNGGQPVAGEDGQAADGSMQPTSWRQEPQLCGMGTEQGCWIPVSSDKGSCPQVMERSFHMPSYGTQTLEGGVEKPHSLLSANPLWQQRALDPPHQMELTQ
modifications: Pro-epidermal growth factor
- stool cultures for E. coli (RDEC-E. coli; I-EGF group): positive
- animals with diarrhea (RDEC-E. coli; I-EGF group, 4 animals in infected group): none
- effect on infection-induced reduced weight gain (RDEC-E. coli; I-EGF vs I): prevented
- effect on jejunum maltase and sucrase activities (RDEC-E. coli; I-EGF vs I): prevented the decrease
- reduction of E. coli colonization in the jejunum, ileum and proximal colon (RDEC-E. coli; compared to infected (I)): > 85%
- E. Coli ILE (RDEC-E. coli; ileum mucosa, 7 days after inoculation): 4.88 ± 0.2 Log10 CFU/cm
- % bacterial clearance in infected + EGF group, ILE (RDEC-E. coli; ileum, vs infected): 95%
- Cumulative Weight Gain (RDEC-E. coli; infected rabbits, 60 μg oral EGF daily for 10 days, 7 days after inoculation): 316 ± 16 grams
- E. Coli JEJ (RDEC-E. coli; [4]): 3.10 ± 0.4 Log10 CFU/cm
- MALT (jejunum maltase activity) (RDEC-E. coli; [4]): 436 ± 48 u/g
- SUC (jejunum sucrase activity) (RDEC-E. coli; [4]): 89 ± 19 u/g
- % bacterial clearance in infected + EGF group, JEJ (RDEC-E. coli; jejunum, vs infected): 92%
- E. Coli PROX (RDEC-E. coli; proximal colon mucosa, 7 days after inoculation): 4.09 ± 0.2 Log10 CFU/cm
- % bacterial clearance in infected + EGF group, PROX (RDEC-E. coli; proximal colon, vs infected): 85%
- microorganisms adhering to the epithelial surface (scanning electron microscopy) (E. coli; Transwell membrane studies, bacterium not specified): significantly higher numbers of microorganisms adhering to the epithelial surface of untreated monolayers
- delay of initial E. coli translocation (E. coli; apical EGF 100 μM 15 min prior to infection): 1 h
- inhibition of rate of E. coli invasion (transepithelial migration rate) (E. coli; apical EGF 100 μM, after the initial delay): > 95%
- translocation of S. typhimurium (Salmonella typhimurium): completely abolished
- mean cumulative weight gain ([1]; at 9 days, 100 μg/kg body weight daily oral, n=10, controls 394±16 g): 422 ± 27 g
- slope of the linear regression curve of weight gain ([1]; vs untreated controls, P 0.002, FIG. 1): significantly greater
- brush border membrane proline transport ([2]; EGF 60 ng/ml luminal, one hour, n=5, control 2.6±0.3): 3.8±0.5 nmol/min/mg protein
- brush border membrane glucose transport ([2]; EGF 60 ng/ml luminal, one hour, n=5, control 11.5±0.9): 16.1±1.0 nmol/min/mg protein
- glucose absorption in intact tissue ([2]; luminal EGF, initial experiments): increased
- stability in drinking water [3]: proven stable
